Laboratory results from the supplement of paper PMC10567573.
± gives the standard deviation.

Test: protein stability index of a GFP-peptide fusion (GPS, HEK-293T) (PSI 1-6); higher = more stable
[1] = treatment: DMSO, c terminus: a fixed tail appended
[2] = treatment: MLN4924 1 uM, 8 h, c terminus: a fixed tail appended
[3] = treatment: DMSO, c terminus: native
[4] = treatment: MLN4924 1 uM, 8 h, c terminus: native
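Further: 24-mer peptide tiles fused after GFP, lentivirally expressed, FACS-sorted into six equal bins by GFP/DsRed ratio, decoded by Illumina sequencing, PSI is the read-weighted mean bin number.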

Sequence	protein stability index [1]	protein stability index [2]	protein stability index [3]	protein stability index [4]
EEDGGADEHEHPLTSELDPEKEQE [MIA2]	5.4 ± 0.57	5.5 ± 0.37	–	–
EEEKEWAFEESKIDEHHFVAVALR [AASDHPPT]	3.73 ± 0.37	3.84 ± 0.42	–	–
EEYTTGMADCILVNSQFTAAVFKE [ALG2]	3.21 ± 0.27	3.26 ± 0.24	–	–
EFEAVVRQAELAIERCIFPERIYQ [PI4K2A]	2.43 ± 0.37	2.33 ± 0.41	–	–
EFNHTGELLATGDKGGRVVIFQRE [PPP2R2B]	3.18 ± 0.24	3.19 ± 0.22	–	–
EFVVRCFACPSQALFFKNIMNIID [KCNA4]	2.4 ± 0.78	2.12 ± 0.55	–	–
EGGWWKAISLSTGRESYIPGICVA [SLA]	2.03 ± 0.91	2.05 ± 0.52	–	–
EGPSVVKRPAPRTAPRQEKHERTH [SPRY1]	5.17 ± 0.29	5.13 ± 0.2	–	–
EGRLRYPSRREPPPRRSRSRSHDR [CLK3]	5.33 ± 0.31	5.45 ± 0.1	–	–
EGSLWAVGTESQGRDWRHLPTITS [PXN]	3.23 ± 0.16	3.34 ± 0.16	–	–
EGVAGKSGLEKEVQRLTSRAARDY [FCHSD1]	4.69 ± 0.039	4.84 ± 0.09	–	–
EILRYMKEFTLLLSAANVCLDPII [P2RY14]	2.44 ± 0.47	2.26 ± 0.31	–	–
EILTKESNVQEVRCPVTVCGDVHG [PPP2CA]	3.69 ± 0.57	3.79 ± 0.12	–	–
EILYPALPTDGSTGVELAPRSAEP [PCDHGA10]	4.57 ± 0.23	4.85 ± 0.1	–	–
EKPLGRVGVFLDFESGSVSFLNVT [TRIM43]	2.28 ± 0.33	2.17 ± 0.55	–	–
EKQIRSFLIEGPLINTIRVVCASY [PLEKHN1]	3.13 ± 0.74	2.79 ± 0.48	–	–
ELDYLMDVLVGTQALERPPGPGR [SERTAD1]	–	–	2.23 ± 0.26	2.67 ± 0.58
ELPAPAEVAAKNQSLEGDTTKGTS [MLH1]	5.61 ± 0.14	5.59 ± 0.16	–	–
ELQNQLAACTRALESSEELLETAN [FSD1]	4.24 ± 0.37	4.37 ± 0.39	–	–
ELRNMCDEHIASEEPAEKEDLLQQ [CLCN6]	5.38 ± 0.18	5.45 ± 0.12	–	–
ELSRQVRSSVELELERCRQQAGLL [PPEF2]	3.23 ± 0.25	3.2 ± 0.39	–	–
ELVLPFQELQIDDNEYAYLKAIIF [HNF4A]	2.16 ± 0.14	2.37 ± 0.35	–	–

Sequence	protein stability index [1]	protein stability index [2]	protein stability index [3]	protein stability index [4]
EMQLSEVQIKTWFQNRRMKHKRQM [VENTX]	3.26 ± 0.16	3.19 ± 0.37	–	–
ENEKDRADQTVLTEDEKKELENLA [CHGB]	5.54 ± 0.19	5.75 ± 0.18	–	–
ENFDHNTLALILQIPTQNTQARQV [PPFIA4]	2.58 ± 0.21	2.81 ± 0.45	–	–
ENNYYWSASECMQDFNTMFTNCYI [BRD3]	2.28 ± 0.67	2.49 ± 0.44	–	–
ENQSPSSSNYFSPRESTDFSSSSQ [ZBTB22]	5.12 ± 0.31	4.96 ± 0.34	–	–
EPANLDILDTAGQAEFTAMRDQYM [RIT1]	4.83 ± 0.24	4.67 ± 0.2	–	–
EPFSARVLVLCVFNSILPGVLILF [SOAT1]	3.05 ± 0.14	3.06 ± 0.22	–	–
EPPKCLDPCVISQEIMEKYNIKLK [CFHR2]	2.84 ± 0.27	2.87 ± 0.34	–	–
EQELKTVTYSLLKRLKERSLDTLL [SMAD6]	2.35 ± 0.34	2.22 ± 0.31	–	–
ERERLYPFSECGEAVSDSTPFLTN [ZNF263]	4.16 ± 0.16	4.11 ± 0.27	–	–
ERLQAIAEKRKRQAEIENKRRQLE [PALM]	3.74 ± 0.16	3.73 ± 0.27	–	–
ERLRLEQQKQQIMAALNSQTAVQF [ACBD3]	3.36 ± 0.46	3.42 ± 0.28	–	–
ERNFWDPSPQLDTQQEIKLCQKSN [WDR41]	3.92 ± 0.34	3.94 ± 0.37	–	–
ERPGAEGAPLLPPPLPPPSPPGSG [ACBD3]	5.54 ± 0.24	5.47 ± 0.19	–	–
ERVVREALEKLRSEMEEEKRQAVN [ZMYND11]	4.59 ± 0.46	4.64 ± 0.063	–	–
ESALIALDSEKPKKLRFHPKQLYF [EHMT1]	2.38 ± 0.48	2.54 ± 0.19	–	–
ESFGQNYPEEADGTLDCISMALTC [RBBP5]	3.72 ± 0.26	3.53 ± 0.18	–	–
ESFTVHFLPLNSAQTLHHKSCYNG [DNAAF3]	2.4 ± 0.62	2.49 ± 0.42	–	–
ESKLLRDLSAANEKNLLLQNQVDE [LRRC45]	5.37 ± 0.2	5.15 ± 0.34	–	–
ESTFKNTEISFILGQEFDEVTADD [FABP4]	4.74 ± 0.13	5.03 ± 0.18	–	–
ETQLKTLAQFPNTLLGNPKKRMRY [KCNA1]	3.25 ± 0.46	3.61 ± 0.46	–	–
EVFRFVQSCARAVVPSYIPLVKKH [CPOX]	2.12 ± 0.21	2.37 ± 0.33	–	–

Sequence	protein stability index [1]	protein stability index [2]	protein stability index [3]	protein stability index [4]
EVKKKGKMKKLGQAMEEDLIVGLQ [HDAC6]	4.55 ± 0.72	4.75 ± 0.14	–	–
EVLLDHLKAHAEEKPPSGTKEKKH [PLAGL1]	4.88 ± 0.2	5.08 ± 0.14	–	–
EVQAVHKNTTYDLIANIVHDGKPS [USP39]	3.69 ± 0.17	3.87 ± 0.32	–	–
EYVPGGELFSYLRNRGRFSSTTGL [PRKX]	2.53 ± 0.18	2.82 ± 0.27	–	–
FAAEARYPIYVIPEPPPVSFQPYH [TENT5D]	2.24 ± 0.22	2.26 ± 0.34	–	–
FAEKGELRKSIFSESRKPTVSIME [TRIM29]	2.37 ± 0.6	3.09 ± 0.59	–	–
FASLRPSEPFLTPYLLGPDKNLTE [SLC19A2]	2.59 ± 0.48	3.17 ± 0.62	–	–
FCEELESMIQEQFKKGKNPTGLLA [ADD1]	3.9 ± 0.2	3.81 ± 0.18	–	–
FCMFYAVLGIPLTLVMFQSLGERM [KCNK9]	3.7 ± 0.32	2.95 ± 0.31	–	–
FCVALSDYDLVLAEDEEMNRMHES [GNAI1]	3.52 ± 0.41	3.43 ± 0.28	–	–
FDDCLYALCVVDTIKRSSQTGEWQ [GFOD1]	2.09 ± 0.42	2.29 ± 0.25	–	–
FDRNADGYIDPEELAEIFRASGEH [TNNC2]	5.32 ± 0.21	5.25 ± 0.2	–	–
FEPRLLVQSIELQRPRFITSGGSN [VPS39]	2.88 ± 0.3	2.9 ± 0.21	–	–
FFIYGQVLYTDKTYAMGHLIQRKK [TNFSF13B]	2.4 ± 1	2.12 ± 0.53	–	–
FFRSLLPNYTMEGERPEEGVAGGL [TCF25]	3.09 ± 0.32	3.52 ± 0.15	–	–
FFSVIFMTVGILSNSLAIAILMKA [PTGFR]	3.12 ± 0.26	2.75 ± 0.5	–	–
FFYTAATNNPRFDKMEGNPICVQI [CRY1]	2.92 ± 0.33	2.83 ± 0.67	–	–
FGGAAAVAILAVAIGVALALRKK [BCL2L13]	–	–	2.99 ± 0.2	2.81 ± 0.21
FGGVLEYFMIQALNQKTSEKMKKR [RHOBTB3]	2.14 ± 0.66	2.24 ± 0.25	–	–
FGIDVKEVDPTGHSFVLVTSLGLT [MAGEA10]	2.43 ± 0.55	2.28 ± 0.59	–	–
FGKKEKGRLIQLSRDGATGHVLLT [PPFIA4]	2.71 ± 0.36	2.78 ± 0.2	–	–
